Test results from article PMC7033278, “A Nonpeptide Oxytocin Receptor Agonist for a Durable Relief of Inflammatory Pain” (Scientific Reports, 2020).
Like-named read-outs stand apart in the source and are kept apart here.

How the values were obtained:
[1] = biological target: T1, ionotropic TRPV1 receptor (Homo sapiens, UniProt Q8NER1); test: Eurofins functional profiling, TRPV1 agonist/antagonist; type: cell-based; conditions: 5 μM
T1 construct: Eurofins (contract assay)
Protocol: In vitro profiling of LIT-001 was performed by Eurofins as described in the Eurofins SafetyScreen-Functional panel, 2018[31]. The hepatotoxicity of LIT-001 was studied with cryo-preserved mouse hepatocytes. After unfreezing (optiTHAW and optiINCUBATE media, Xenotech) and cell viability control, cells (2 × 10^6 cells/ml) were dispatched in 96 well microtiterplates. LIT-001 was added to reach a concentration 1 μM in the presence of 1 × 10^6 cells/mL in a volume of 100 μl/well. The incubation was stopped at 4, 20, 40, 80 and 120 min in adding 100 μl of acetonitrile at 0 °C. A positive control was treated in the same conditions. All samples were analyzed by UHPLC coupled to a mass spectrometer (Shimadzu LC-MS 8030).

[2] = biological target: Transient Receptor Potential Vanilloid type-1 (TRPV1); parameters: method as in PMID 29117570; conditions: cited from earlier work
[3] = stated for comparison, no reference given; cited from earlier work
[4] = parameters: method as in PMID 6831225; conditions: rat CSF (abstract: humans and rats), cited from earlier work
[5] = parameters: method as in PMID 19183510; conditions: humans and rats; listed as OT; cited from earlier work

T1 sequence (Q8NER1 whole entry): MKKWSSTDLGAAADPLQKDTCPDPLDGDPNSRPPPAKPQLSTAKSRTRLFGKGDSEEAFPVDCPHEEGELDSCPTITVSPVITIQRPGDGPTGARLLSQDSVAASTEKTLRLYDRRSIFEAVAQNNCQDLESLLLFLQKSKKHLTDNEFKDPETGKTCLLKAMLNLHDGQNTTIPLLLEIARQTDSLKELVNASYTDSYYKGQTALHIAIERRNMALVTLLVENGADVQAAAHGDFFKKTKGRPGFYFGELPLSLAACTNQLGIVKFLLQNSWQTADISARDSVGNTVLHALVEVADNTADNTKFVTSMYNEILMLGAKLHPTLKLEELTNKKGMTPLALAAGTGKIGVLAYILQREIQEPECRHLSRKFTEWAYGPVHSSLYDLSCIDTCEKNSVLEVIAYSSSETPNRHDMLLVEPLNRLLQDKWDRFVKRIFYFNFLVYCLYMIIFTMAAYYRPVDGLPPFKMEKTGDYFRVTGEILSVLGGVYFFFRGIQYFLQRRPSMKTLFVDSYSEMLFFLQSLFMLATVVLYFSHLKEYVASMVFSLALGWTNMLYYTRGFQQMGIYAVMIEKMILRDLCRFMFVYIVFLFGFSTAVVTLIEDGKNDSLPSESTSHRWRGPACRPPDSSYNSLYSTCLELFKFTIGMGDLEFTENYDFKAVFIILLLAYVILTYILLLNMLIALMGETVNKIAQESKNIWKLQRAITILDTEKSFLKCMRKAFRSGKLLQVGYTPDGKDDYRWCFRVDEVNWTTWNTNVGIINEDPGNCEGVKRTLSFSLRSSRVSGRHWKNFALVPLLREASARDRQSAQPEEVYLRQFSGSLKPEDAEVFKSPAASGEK

Compound	agonist or antagonist activity at TRPV1 receptor [1]	EC50 [2] [nM]	half-life [3]	half-life in cerebrospinal fluid (CSF) [4]	half-life in cerebrospinal fluid (CSF) ([4]; listed as OT)	half-life in the blood circulation [5] [min]
Cc1ccccc1N1CCN(S(=O)(=O)C[C@]23CC[C@H](C[C@@H]2NC(=O)[C@@H](N)CCS(C)(=O)=O)C3(C)C)CC1 [L-368,699, reference compound]	neither LIT-001 nor the OT antagonist L-368,699 displayed any significant agonist or antagonist activity	–	–	–	–	–
Oxytocin	–	316	less than 15 min	around twenty	around 20 minutes	5
